Legend:
[1] = Phase 1 independent reader assessment of image quality (lesion evaluation and general) of 5, 7, 9 mCi scans; assay type: in vivo, human; settings: for Lesion evaluation Image Quality Score (Mean [SD]) / Number of Lesions visible: 4-hour scans
Experimental: The Phase 1 portion of the study included a total of 12 patients with biochemical, recurrent PC after prostatectomy or radiation therapy. Patients were randomized into 3 groups of 4 patients. Patients in a given group received a single intravenous dose of 5, 7, or 9 mCi (±10%) of copper Cu-64 PSMA I&T. Whole-body PET/CT images were acquired at 1 hour (±15 minutes), 4 hours (±30 minutes), and 24 hours (±2.0 hours) post injection.
The 1-hour and 4-hour PET/CT images were evaluated independently by 3 readers blinded to all patient information, dose administration, and times of acquisition to assess the quality of the images (24 PET/CT image sets total). In addition, readers performed all assessments in one sitting with images scrambled such that the 1- and 4-hour imaging from the same patient was […]. The imaging protocol, scanner qualification, and imaging time/bed position were identical at 1, 4 and 24 hours and kept constant regardless of dose. The assessments were used together with dose reduction modeling to determine an acceptable dose to be administered for the Phase 2 portion of the study defined as the lowest copper Cu-64 PSMA I&T dose that yielded the most clinically relevant diagnostic image quality based on expert consensus review of all measurements and overall image quality.

clinical = settings: human, in vivo, total radioactivity
Experimental: Radiation dosimetry estimates for normal organs were determined for copper Cu-64 PSMA I&T based on biodistribution collected from the 12 patients enrolled in the trial. Whole-body PET/CT images acquired at 1 hour (±15 minutes), 4 hours (±30 minutes), and 24 hours (±2.0 hours) post injection were used together with blood samples collected prior to and 1, 2, 4, and 24 hours post injection and total voided urine samples collected for 0 to 1-hour and 1 to 4-hour intervals post injection.
Percent injected activity as a function of time was determined for the quantified organs listed below.
First, calculating Activity Quantification in PET Images utilizing the following Equation One: […]
Use of this equation can calculate organ/tissue and whole body activity concentration levels.
Second, Normalization of PET Quantification utilizing a normalization factor to decay values using urine activity utilizing the following Equation Two:
A normalization factor can be determined and applied to the decay corrected % IA values by assuming 100% quantification of the total body activity at the first time point and assuming accurate urine activity assay according to Equation Two.

[2] = Mean % Injected Dose, GI Total Contents
[3] = Mean % Injected Dose, Heart wall
[4] = Mean % Injected Dose, Lacrimal Glands
[5] = Mean % Injected Dose, Pituitary
[6] = Mean % Injected Dose, Red Marrow
[7] = Mean % Injected Dose, Salivary glands
[8] = Mean % Injected Dose, Stomach Wall
[9] = Mean % Injected Dose, Whole Body

Structure (SMILES): O=C(O)CC[C@H](NC(=O)N[C@@H](CCCCNC(=O)CCCCCCC(=O)NCCCC[C@@H](NC(=O)[C@@H](Cc1ccccc1)NC(=O)[C@@H](Cc1ccc(O)c(I)c1)NC(=O)CC[C@H](C(=O)O)N1CCN(CC(=O)O)CCN(CC(=O)O)CCN(CC(=O)O)CC1)C(=O)O)C(=O)O)C(=O)O [Cu-64 PSMA I&T, 64 Cu-(3S, 7S, 26R, 29R, 32R, 37R)-29-benzyl-32(4-hydroxy-3-iodobenzyl)-5, 13, 20, 28, 31, 34-hexaoxo-37-(4,7,10-tris(carboxymethyl)-1,4,7, 10-tetraazacyclododecan-1-yl)-4,6, 12, 21, 27, 30, 33-heptaazaheptatriacontane-1,3,7, 26, 37-pentacarboxylic acid, metal not drawn]
- Average general image quality across timepoints ([1]; 5 mCi (n = 4)): 1.63 (0.58)
- Average general image quality across timepoints ([1]; 7 mCi (n = 4)): 1.58 (0.58)
- Average general image quality across timepoints ([1]; 9 mCi): 1.71 (0.46)
- Lesion evaluation Image Quality Score (Mean [SD]) ([1]; Reader 1, 5 mCi): 2.00 (0.00)
- Number of Lesions visible ([1]; Reader 1, 5 mCi): 19
- Lesion evaluation Image Quality Score (Mean [SD]) ([1]; Reader 1, 7 mCi): 2.00 (0.00)
- Number of Lesions visible ([1]; Reader 1, 7 mCi): 15
- Lesion evaluation Image Quality Score (Mean [SD]) ([1]; Reader 1, 9 mCi): 2.00 (0.00)
- Number of Lesions visible ([1]; Reader 1, 9 mCi): 12
- General Image Quality score (Mean [SD]) ([1]; Reader 1, 1 hour, 5 mCi (n = 4)): 2.00 (0.00)
- General Image Quality score (Mean [SD]) ([1]; Reader 1, 1 hour, 7 mCi (n = 4)): 2.00 (0.00)
- General Image Quality score (Mean [SD]) ([1]; Reader 1, 1 hour, 9 mCi): 1.75 (0.50)
- General Image Quality score (Mean [SD]) ([1]; Reader 1, 4 hours, 5 mCi (n = 4)): 1.75 (0.50)
- General Image Quality score (Mean [SD]) ([1]; Reader 1, 4 hours, 7 mCi (n = 4)): 2.00 (0.00)
- General Image Quality score (Mean [SD]) ([1]; Reader 1, 4 hours, 9 mCi): 1.75 (0.50)
- Lesion evaluation Image Quality Score (Mean [SD]) ([1]; Reader 2, 5 mCi): 2.00 (0.00)
- Number of Lesions visible ([1]; Reader 2, 5 mCi): 17
- Lesion evaluation Image Quality Score (Mean [SD]) ([1]; Reader 2, 7 mCi): 1.77 (0.44)
- Number of Lesions visible ([1]; Reader 2, 7 mCi): 13
- Lesion evaluation Image Quality Score (Mean [SD]) ([1]; Reader 2, 9 mCi): 2.00 (0.00)
- Number of Lesions visible ([1]; Reader 2, 9 mCi): 13
- General Image Quality score (Mean [SD]) ([1]; Reader 2, 1 hour, 5 mCi (n = 4)): 2.00 (0.00)
- General Image Quality score (Mean [SD]) ([1]; Reader 2, 1 hour, 7 mCi (n = 4)): 1.00 (0.82)
- General Image Quality score (Mean [SD]) ([1]; Reader 2, 1 hour, 9 mCi): 1.75 (0.50)
- General Image Quality score (Mean [SD]) ([1]; Reader 2, 4 hours, 5 mCi (n = 4)): 2.00 (0.00)
- General Image Quality score (Mean [SD]) ([1]; Reader 2, 4 hours, 7 mCi (n = 4)): 1.50 (0.58)
- General Image Quality score (Mean [SD]) ([1]; Reader 2, 4 hours, 9 mCi): 2.00 (0.00)
- Number of Lesions visible ([1]; Reader 3, 5 mCi): 19
- Number of Lesions visible ([1]; Reader 3, 7 mCi): 12
- Lesion evaluation Image Quality Score (Mean [SD]) ([1]; Reader 3, 9 mCi): 1.85 (0.38)
- Number of Lesions visible ([1]; Reader 3, 9 mCi): 13
- General Image Quality score (Mean [SD]) ([1]; Reader 3, 1 hour, 5 mCi (n = 4)): 1.00 (0.00)
- General Image Quality score (Mean [SD]) ([1]; Reader 3, 1 hour, 7 mCi (n = 4)): 1.25 (0.50)
- General Image Quality score (Mean [SD]) ([1]; Reader 3, 1 hour, 9 mCi): 1.50 (0.58)
- General Image Quality score (Mean [SD]) ([1]; Reader 3, 4 hours, 5 mCi (n = 4)): 1.00 (0.82)
- General Image Quality score (Mean [SD]) ([1]; Reader 3, 4 hours, 7 mCi (n = 4)): 1.75 (0.50)
- General Image Quality score (Mean [SD]) ([1]; Reader 3, 4 hours, 9 mCi): 1.50 (0.58)
- QIQS (general image quality), lowest score ([1]; at 4 hours, 5, 7 and 9 mCi, all readers): ≥ 1.00
- tissue uptake dose at 1 h (clinical; Mean % Injected Dose, Blood): 5.8 %ID
- tissue uptake dose at 2 h (clinical; Mean % Injected Dose, Blood): 4.2 %ID
- tissue uptake dose at 4 h (clinical; Mean % Injected Dose, Blood): 3.2 %ID
- tissue uptake dose at 24 h (clinical; Mean % Injected Dose, Blood): 4.4 %ID
- tissue uptake dose at 1 h (clinical; [2]): 10 %ID
- tissue uptake dose at 4 h (clinical; [2]): 10 %ID
- tissue uptake dose at 24 h (clinical; [2]): 12 %ID
- tissue uptake dose at 1 h (clinical; [3]): 1.2 %ID
- tissue uptake dose at 4 h (clinical; [3]): 0.84 %ID
- tissue uptake dose at 24 h (clinical; [3]): 0.96 %ID
- tissue uptake dose at 1 h (clinical; Mean % Injected Dose, Kidneys): 8.6 %ID
- tissue uptake dose at 4 h (clinical; Mean % Injected Dose, Kidneys): 5 %ID
- tissue uptake dose at 24 h (clinical; Mean % Injected Dose, Kidneys): 2.1 %ID
- tissue uptake dose at 1 h (clinical; [4]): 0.023 %ID
- tissue uptake dose at 4 h (clinical; [4]): 0.024 %ID
- tissue uptake dose at 24 h (clinical; [4]): 0.015 %ID
- tissue uptake dose at 1 h (clinical; Mean % Injected Dose, Liver): 19 %ID
- tissue uptake dose at 4 h (clinical; Mean % Injected Dose, Liver): 25 %ID
- tissue uptake dose at 24 h (clinical; Mean % Injected Dose, Liver): 30 %ID
- tissue uptake dose at 1 h (clinical; Mean % Injected Dose, Pancreas): 0.35 %ID
- tissue uptake dose at 4 h (clinical; Mean % Injected Dose, Pancreas): 0.39 %ID
- tissue uptake dose at 24 h (clinical; Mean % Injected Dose, Pancreas): 0.28 %ID
- tissue uptake dose at 1 h (clinical; [5]): 0.0021 %ID
- tissue uptake dose at 4 h (clinical; [5]): 0.0019 %ID
- tissue uptake dose at 24 h (clinical; [5]): 0.0017 %ID
- tissue uptake dose at 1 h (clinical; Mean % Injected Dose, Prostate): 0.036 %ID
- tissue uptake dose at 4 h (clinical; Mean % Injected Dose, Prostate): 0.031 %ID
- tissue uptake dose at 24 h (clinical; Mean % Injected Dose, Prostate): 0.021 %ID
- tissue uptake dose at 1 h (clinical; [6]): 1.7 %ID
- tissue uptake dose at 4 h (clinical; [6]): 1.4 %ID
- tissue uptake dose at 24 h (clinical; [6]): 1.5 %ID
- tissue uptake dose at 24 h (clinical; Mean % Injected Dose, Remainder): 52 %ID
- tissue uptake dose at 1 h (clinical; [7]): 1.1 %ID
- tissue uptake dose at 4 h (clinical; [7]): 0.95 %ID
- tissue uptake dose at 24 h (clinical; [7]): 0.4 %ID
- tissue uptake dose at 1 h (clinical; Mean % Injected Dose, Spleen): 1.5 %ID
- tissue uptake dose at 4 h (clinical; Mean % Injected Dose, Spleen): 0.54 %ID
- tissue uptake dose at 24 h (clinical; Mean % Injected Dose, Spleen): 0.29 %ID
- tissue uptake dose at 1 h (clinical; [8]): 0.52 %ID
- tissue uptake dose at 4 h (clinical; [8]): 0.51 %ID
- tissue uptake dose at 24 h (clinical; [8]): 0.42 %ID
- tissue uptake dose at 1 h (clinical; Mean % Injected Dose, Testes): 0.11 %ID
- tissue uptake dose at 4 h (clinical; Mean % Injected Dose, Testes): 0.1 %ID
- tissue uptake dose at 24 h (clinical; Mean % Injected Dose, Testes): 0.065 %ID
- tissue uptake dose at 1 h (clinical; Mean % Injected Dose, Thyroid): 0.031 %ID
- tissue uptake dose at 4 h (clinical; Mean % Injected Dose, Thyroid): 0.019 %ID
- tissue uptake dose at 24 h (clinical; Mean % Injected Dose, Thyroid): 0.016 %ID
- tissue uptake dose at 1 h (clinical; [9]): 96 %ID
- tissue uptake dose at 4 h (clinical; [9]): 87 %ID
- tissue uptake dose at 24 h (clinical; [9]): 81 %ID
- total activity recovery (whole-body PET plus urine), % of injected activity at 1 hour (clinical; sum of unnormalized activity recovery from whole body PET quantification and urinary excretion, % of the injected activity): 101%

Source: patent US20250049972A1, “METHOD OF DETECTING PROSTATE CANCER IN A HUMAN SUBJECT USING A Cu 64 PSMA I&T INJECTION” (Curium US LLC, priority 2023, published 2025)
